Results as given in US20180244758A1 (MAPP BIOPHARMACEUTICAL, published 2018).

B1: PE-87 D99A (antibody, V domains shown)
VH: QVQLVQSGVTLVQPGGSLRVSCAASGFTFSSYAMSWVRQAPGKGLEWVSAISGLGGSTYYADSVKGRFTISRDNSKNTLYLQMNSLRAEDTAVYYCAKAHRVWAAGYHFDYWGQGALVTVSS
VL: DIVLTQSPSTLSASVGDRVTITCRASQSISSWLAWYQQKPGEAPKLLISDASSLESGVPSRFSGSGSGTEFTLTISSLQPDDFATYYCQQYYSSPTFGGGTKVEIK
B2: PE-87 V102A (antibody, V domains shown)
VH: QVQLVQSGVTLVQPGGSLRVSCAASGFTFSSYAMSWVRQAPGKGLEWVSAISGLGGSTYYADSVKGRFTISRDNSKNTLYLQMNSLRAEDTAVYYCAKDHRAWAAGYHFDYWGQGALVTVSS
VL: DIVLTQSPSTLSASVGDRVTITCRASQSISSWLAWYQQKPGEAPKLLISDASSLESGVPSRFSGSGSGTEFTLTISSLQPDDFATYYCQQYYSSPTFGGGTKVEIK
B3: PE-87 F109A (antibody, V domains shown)
VH: QVQLVQSGVTLVQPGGSLRVSCAASGFTFSSYAMSWVRQAPGKGLEWVSAISGLGGSTYYADSVKGRFTISRDNSKNTLYLQMNSLRAEDTAVYYCAKDHRVWAAGYHADYWGQGALVTVSS
VL: DIVLTQSPSTLSASVGDRVTITCRASQSISSWLAWYQQKPGEAPKLLISDASSLESGVPSRFSGSGSGTEFTLTISSLQPDDFATYYCQQYYSSPTFGGGTKVEIK
B4: PE-87 H100A (antibody, V domains shown)
VH: QVQLVQSGVTLVQPGGSLRVSCAASGFTFSSYAMSWVRQAPGKGLEWVSAISGLGGSTYYADSVKGRFTISRDNSKNTLYLQMNSLRAEDTAVYYCAKDARVWAAGYHFDYWGQGALVTVSS
VL: DIVLTQSPSTLSASVGDRVTITCRASQSISSWLAWYQQKPGEAPKLLISDASSLESGVPSRFSGSGSGTEFTLTISSLQPDDFATYYCQQYYSSPTFGGGTKVEIK
B5: PE-87 G106A (antibody, V domains shown)
VH: QVQLVQSGVTLVQPGGSLRVSCAASGFTFSSYAMSWVRQAPGKGLEWVSAISGLGGSTYYADSVKGRFTISRDNSKNTLYLQMNSLRAEDTAVYYCAKDHRVWAAAYHFDYWGQGALVTVSS
VL: DIVLTQSPSTLSASVGDRVTITCRASQSISSWLAWYQQKPGEAPKLLISDASSLESGVPSRFSGSGSGTEFTLTISSLQPDDFATYYCQQYYSSPTFGGGTKVEIK
B6: PE-87 W103A (antibody, V domains shown)
VH: QVQLVQSGVTLVQPGGSLRVSCAASGFTFSSYAMSWVRQAPGKGLEWVSAISGLGGSTYYADSVKGRFTISRDNSKNTLYLQMNSLRAEDTAVYYCAKDHRVAAAGYHFDYWGQGALVTVSS
VL: DIVLTQSPSTLSASVGDRVTITCRASQSISSWLAWYQQKPGEAPKLLISDASSLESGVPSRFSGSGSGTEFTLTISSLQPDDFATYYCQQYYSSPTFGGGTKVEIK
B7: PE-87 H108A (antibody, V domains shown)
VH: QVQLVQSGVTLVQPGGSLRVSCAASGFTFSSYAMSWVRQAPGKGLEWVSAISGLGGSTYYADSVKGRFTISRDNSKNTLYLQMNSLRAEDTAVYYCAKDHRVWAAGYAFDYWGQGALVTVSS
VL: DIVLTQSPSTLSASVGDRVTITCRASQSISSWLAWYQQKPGEAPKLLISDASSLESGVPSRFSGSGSGTEFTLTISSLQPDDFATYYCQQYYSSPTFGGGTKVEIK
B8: PE-87 Y107A (antibody, V domains shown)
VH: QVQLVQSGVTLVQPGGSLRVSCAASGFTFSSYAMSWVRQAPGKGLEWVSAISGLGGSTYYADSVKGRFTISRDNSKNTLYLQMNSLRAEDTAVYYCAKDHRVWAAGAHFDYWGQGALVTVSS
VL: DIVLTQSPSTLSASVGDRVTITCRASQSISSWLAWYQQKPGEAPKLLISDASSLESGVPSRFSGSGSGTEFTLTISSLQPDDFATYYCQQYYSSPTFGGGTKVEIK
B9: PE-87 R101A (antibody, V domains shown)
VH: QVQLVQSGVTLVQPGGSLRVSCAASGFTFSSYAMSWVRQAPGKGLEWVSAISGLGGSTYYADSVKGRFTISRDNSKNTLYLQMNSLRAEDTAVYYCAKDHAVWAAGYHFDYWGQGALVTVSS
VL: DIVLTQSPSTLSASVGDRVTITCRASQSISSWLAWYQQKPGEAPKLLISDASSLESGVPSRFSGSGSGTEFTLTISSLQPDDFATYYCQQYYSSPTFGGGTKVEIK

How the values were obtained:
Test in all cases: cell-based or functional assay
[1] = biological target: T1, TAFV GP on VSV pseudotype particles (Tai Forest virus (TAFV), UniProt Q66810 33-676)
T1 sequence: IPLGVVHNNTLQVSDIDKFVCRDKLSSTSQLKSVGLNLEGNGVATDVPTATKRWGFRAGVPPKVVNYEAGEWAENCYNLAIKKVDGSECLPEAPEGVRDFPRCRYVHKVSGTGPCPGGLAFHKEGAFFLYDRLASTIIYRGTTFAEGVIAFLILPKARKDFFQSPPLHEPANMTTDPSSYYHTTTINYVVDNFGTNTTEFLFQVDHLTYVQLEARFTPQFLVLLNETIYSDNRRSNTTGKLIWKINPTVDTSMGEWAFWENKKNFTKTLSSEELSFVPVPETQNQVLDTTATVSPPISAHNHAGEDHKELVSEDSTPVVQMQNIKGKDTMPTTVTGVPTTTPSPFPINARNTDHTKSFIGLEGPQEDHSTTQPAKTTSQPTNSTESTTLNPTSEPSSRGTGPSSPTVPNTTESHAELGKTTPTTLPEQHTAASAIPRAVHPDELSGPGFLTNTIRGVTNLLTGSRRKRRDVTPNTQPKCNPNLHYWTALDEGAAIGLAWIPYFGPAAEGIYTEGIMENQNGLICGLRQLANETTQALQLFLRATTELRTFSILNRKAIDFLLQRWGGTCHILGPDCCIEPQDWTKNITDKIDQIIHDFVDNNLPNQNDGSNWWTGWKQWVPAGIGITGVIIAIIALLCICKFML

[2] = biological target: T2, EBOV GP on rVSV particles (Ebola virus (EBOV), UniProt Q05320 33-676)
T2 sequence: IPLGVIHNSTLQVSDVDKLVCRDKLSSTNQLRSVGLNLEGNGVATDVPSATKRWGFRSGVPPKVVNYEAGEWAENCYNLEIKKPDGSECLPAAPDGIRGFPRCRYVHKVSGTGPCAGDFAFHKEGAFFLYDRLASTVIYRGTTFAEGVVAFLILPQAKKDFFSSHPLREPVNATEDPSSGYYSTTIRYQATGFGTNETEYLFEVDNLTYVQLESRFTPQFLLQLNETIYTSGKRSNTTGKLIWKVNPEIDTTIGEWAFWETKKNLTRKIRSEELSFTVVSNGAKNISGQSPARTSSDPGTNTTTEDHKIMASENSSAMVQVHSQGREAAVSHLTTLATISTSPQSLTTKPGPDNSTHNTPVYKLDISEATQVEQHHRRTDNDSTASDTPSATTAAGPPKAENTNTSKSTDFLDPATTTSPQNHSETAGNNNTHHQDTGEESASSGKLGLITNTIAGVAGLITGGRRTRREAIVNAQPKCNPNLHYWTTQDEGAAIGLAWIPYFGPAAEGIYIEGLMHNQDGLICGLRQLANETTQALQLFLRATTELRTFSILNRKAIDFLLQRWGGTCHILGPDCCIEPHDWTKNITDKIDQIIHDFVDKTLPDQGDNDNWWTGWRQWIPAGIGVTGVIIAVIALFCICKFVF

[3] = biological target: BDBV GP on rVSV particles (Bundibugyo virus (BDBV))
[4] = biological target: T3, SUDV GP on rVSV particles (Sudan virus (SUDV), UniProt Q66814 33-676)
T3 sequence: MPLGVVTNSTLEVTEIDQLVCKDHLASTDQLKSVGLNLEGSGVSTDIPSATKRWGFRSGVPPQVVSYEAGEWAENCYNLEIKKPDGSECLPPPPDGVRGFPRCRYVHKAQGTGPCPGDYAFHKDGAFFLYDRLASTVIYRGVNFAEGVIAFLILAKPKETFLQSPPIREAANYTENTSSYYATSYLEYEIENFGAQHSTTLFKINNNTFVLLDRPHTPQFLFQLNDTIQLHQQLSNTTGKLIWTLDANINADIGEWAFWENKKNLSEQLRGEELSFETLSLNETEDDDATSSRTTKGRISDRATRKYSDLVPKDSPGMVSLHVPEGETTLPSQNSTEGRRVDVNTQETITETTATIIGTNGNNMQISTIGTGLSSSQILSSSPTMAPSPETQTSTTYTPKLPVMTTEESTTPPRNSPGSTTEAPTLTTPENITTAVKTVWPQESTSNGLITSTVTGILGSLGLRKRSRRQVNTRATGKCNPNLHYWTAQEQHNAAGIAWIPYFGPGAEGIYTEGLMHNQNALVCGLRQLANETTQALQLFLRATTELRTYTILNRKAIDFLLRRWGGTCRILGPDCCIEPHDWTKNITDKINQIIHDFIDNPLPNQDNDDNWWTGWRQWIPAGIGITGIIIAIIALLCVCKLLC

[5] = biological target: T4, RESTV GP on rVSV particles (Reston virus (RESTV), UniProt Q66799 34-677)
T4 sequence: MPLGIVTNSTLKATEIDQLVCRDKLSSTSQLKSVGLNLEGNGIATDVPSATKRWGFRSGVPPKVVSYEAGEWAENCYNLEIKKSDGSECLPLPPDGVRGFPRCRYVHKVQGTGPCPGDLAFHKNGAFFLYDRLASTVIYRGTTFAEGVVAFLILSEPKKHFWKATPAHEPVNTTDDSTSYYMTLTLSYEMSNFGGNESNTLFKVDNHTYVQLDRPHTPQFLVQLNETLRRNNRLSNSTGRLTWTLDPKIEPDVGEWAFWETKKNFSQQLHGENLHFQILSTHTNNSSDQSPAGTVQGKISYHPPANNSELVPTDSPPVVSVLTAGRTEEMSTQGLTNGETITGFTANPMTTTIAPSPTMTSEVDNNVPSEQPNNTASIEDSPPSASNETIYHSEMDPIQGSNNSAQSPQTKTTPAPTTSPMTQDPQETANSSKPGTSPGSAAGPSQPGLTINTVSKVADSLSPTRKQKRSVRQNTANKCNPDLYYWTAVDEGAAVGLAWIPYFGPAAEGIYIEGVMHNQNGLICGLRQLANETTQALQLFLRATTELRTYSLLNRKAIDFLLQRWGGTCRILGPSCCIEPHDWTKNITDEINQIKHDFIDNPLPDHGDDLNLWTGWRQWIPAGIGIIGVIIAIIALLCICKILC

| Binder | IC50 (nM), neutralization of rVSV-GP [1] | IC50 (nM), neutralization of rVSV-GP [2] | IC50 (nM), neutralization of rVSV-GP [3] | IC50 (nM), neutralization of rVSV-GP [4] | IC50 (nM), neutralization of rVSV-GP [5] |
| --- | --- | --- | --- | --- | --- |
| B1 | > 350 nM | > 500 nM |  |  |  |
| B2 | 1 nM | 0.6 nM | 0.2 nM | 1.1 nM | 0.2 nM |
| B3 | 2.8 nM | 4.2 nM | 0.3 nM | 2.1 nM | 0.4 nM |
| B4 | 0.8 nM | 1 nM | 0.4 nM | 1 nM | 0.2 nM |
| B5 | 0.8 nM | 0.8 nM | 0.4 nM | 0.9 nM | 0.2 nM |
| B6 | > 150 nM |  | > 200 nM |  |  |
| B7 | 2.2 nM | 3.2 nM | 0.6 nM | 2.1 nM | 0.5 nM |
| B8 | 0.8 nM | 3 nM | 0.8 nM | > 350 nM | 1.3 nM |
| B9 | 1.9 nM | 3.2 nM | 0.4 nM | 1.5 nM | 0.2 nM |
